# Patent US20220267415A1 (University of Texas, published 2022)
# B1: anti-SARS-CoV2-09 IgM (antibody)
# VH: QVQLHQWGAGLLKPSETLSRTCAVYGGSFSGYYWTWIRQAPGKGLEWIGEINHGGSTRYNPSLESRVSISVDTSKKQFSLELRSVTAADTAIYYCARGYDTNWYGDGYNWFDPWDRGTLVTVSS
# VL: QSALTQDPSVSVALGQTVRITCQGDSLRGSFASWYRQKPGQAPVLVIFGINNRPSGVPDRFSGSSSGNTASLTITGAQAEDEADYYCNSRESNSNRILFGGGTKVTVL
# chain: not shown
# Assays:
# [1] = target: T1, recombinant SARS-CoV-2 Receptor Binding Domain (RBD) with a his tag (ATUM, Cat. 65639.1.a) (SARS-CoV-2, UniProt P0DTC2 319-541); assay: ELISA on coated RBD-his
# Description: Plates were then washed 5 times with 0.05% PBS-Tween and blocked with 2% BSA-PBS. […] Luminescent data were collected on an EnVision plate reader (Perkin-Elmer) and analyzed with GraphPad Prism using a 4-parameter logistic model.
# [2] = target: T1, recombinant SARS-CoV-2 Receptor Binding …
binder,measurement,setting,value
B1,EC50,[1],0.3 nM
same,EC50 (read off the curve),[2],~0.4 nM
